We go through one sequence from US20140072613A1, “Compositions and Methods for Treating Cutaneous Scarring” (priority 2012, published 2014).

Experiment in all cases: biochemical
Holding throughout (assay type): biochemical

Assay [1] concerns the target T1, 266 human kinases (Homo sapiens, UniProt Q8IW41).
T1 sequence (Q8IW41 1-473): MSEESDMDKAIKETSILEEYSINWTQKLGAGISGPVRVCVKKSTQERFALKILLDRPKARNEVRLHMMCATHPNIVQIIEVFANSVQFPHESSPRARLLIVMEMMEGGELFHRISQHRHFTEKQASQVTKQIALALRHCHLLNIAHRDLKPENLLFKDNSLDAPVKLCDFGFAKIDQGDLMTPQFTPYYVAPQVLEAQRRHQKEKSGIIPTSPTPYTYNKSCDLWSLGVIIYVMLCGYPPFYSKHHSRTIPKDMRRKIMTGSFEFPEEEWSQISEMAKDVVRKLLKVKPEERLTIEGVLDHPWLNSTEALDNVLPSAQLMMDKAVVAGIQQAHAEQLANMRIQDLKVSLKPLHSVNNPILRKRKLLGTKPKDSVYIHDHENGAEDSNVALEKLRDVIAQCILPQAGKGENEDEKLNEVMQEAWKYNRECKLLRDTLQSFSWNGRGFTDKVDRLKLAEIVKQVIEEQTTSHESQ
The settings on record: PRAK(h); 100 μM. An outline of the steps:
(§1)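 Steps: kinase transfers radiolabelled phosphate from ATP onto a positively charged substrate; the substrate is trapped on a negatively charged filter; bound radioactivity is counted by scintillation and compared with uninhibited (100%) activity.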

Assay [2] concerns the target T2, 266 human kinases (Homo sapiens, UniProt O00418).
T2 sequence (O00418 whole entry, looked up): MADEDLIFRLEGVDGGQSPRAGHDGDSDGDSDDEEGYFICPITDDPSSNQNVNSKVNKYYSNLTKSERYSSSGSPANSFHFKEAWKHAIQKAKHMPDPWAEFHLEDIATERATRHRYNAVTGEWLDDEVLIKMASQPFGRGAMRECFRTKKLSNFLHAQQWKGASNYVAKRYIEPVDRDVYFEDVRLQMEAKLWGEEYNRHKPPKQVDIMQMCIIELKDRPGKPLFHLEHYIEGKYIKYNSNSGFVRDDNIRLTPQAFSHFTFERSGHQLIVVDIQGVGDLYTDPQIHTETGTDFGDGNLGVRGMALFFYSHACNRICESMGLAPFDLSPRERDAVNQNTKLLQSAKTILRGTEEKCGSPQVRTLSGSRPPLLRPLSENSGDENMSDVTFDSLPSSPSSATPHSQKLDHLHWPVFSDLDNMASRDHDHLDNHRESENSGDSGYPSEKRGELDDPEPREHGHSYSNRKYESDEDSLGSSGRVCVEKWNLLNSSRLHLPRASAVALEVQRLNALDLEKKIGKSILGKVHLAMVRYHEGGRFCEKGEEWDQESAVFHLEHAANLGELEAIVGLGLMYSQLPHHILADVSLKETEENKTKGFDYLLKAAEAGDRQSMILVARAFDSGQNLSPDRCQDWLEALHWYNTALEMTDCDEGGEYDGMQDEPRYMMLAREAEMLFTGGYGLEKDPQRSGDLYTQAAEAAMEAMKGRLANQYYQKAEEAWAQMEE
The settings on record: eEF-2K(h); 100 μM. An outline of the steps: as §1

For assay [3], the target named is T3, 266 human kinases (Homo sapiens, UniProt P29320).
T3 sequence (P29320 21-983): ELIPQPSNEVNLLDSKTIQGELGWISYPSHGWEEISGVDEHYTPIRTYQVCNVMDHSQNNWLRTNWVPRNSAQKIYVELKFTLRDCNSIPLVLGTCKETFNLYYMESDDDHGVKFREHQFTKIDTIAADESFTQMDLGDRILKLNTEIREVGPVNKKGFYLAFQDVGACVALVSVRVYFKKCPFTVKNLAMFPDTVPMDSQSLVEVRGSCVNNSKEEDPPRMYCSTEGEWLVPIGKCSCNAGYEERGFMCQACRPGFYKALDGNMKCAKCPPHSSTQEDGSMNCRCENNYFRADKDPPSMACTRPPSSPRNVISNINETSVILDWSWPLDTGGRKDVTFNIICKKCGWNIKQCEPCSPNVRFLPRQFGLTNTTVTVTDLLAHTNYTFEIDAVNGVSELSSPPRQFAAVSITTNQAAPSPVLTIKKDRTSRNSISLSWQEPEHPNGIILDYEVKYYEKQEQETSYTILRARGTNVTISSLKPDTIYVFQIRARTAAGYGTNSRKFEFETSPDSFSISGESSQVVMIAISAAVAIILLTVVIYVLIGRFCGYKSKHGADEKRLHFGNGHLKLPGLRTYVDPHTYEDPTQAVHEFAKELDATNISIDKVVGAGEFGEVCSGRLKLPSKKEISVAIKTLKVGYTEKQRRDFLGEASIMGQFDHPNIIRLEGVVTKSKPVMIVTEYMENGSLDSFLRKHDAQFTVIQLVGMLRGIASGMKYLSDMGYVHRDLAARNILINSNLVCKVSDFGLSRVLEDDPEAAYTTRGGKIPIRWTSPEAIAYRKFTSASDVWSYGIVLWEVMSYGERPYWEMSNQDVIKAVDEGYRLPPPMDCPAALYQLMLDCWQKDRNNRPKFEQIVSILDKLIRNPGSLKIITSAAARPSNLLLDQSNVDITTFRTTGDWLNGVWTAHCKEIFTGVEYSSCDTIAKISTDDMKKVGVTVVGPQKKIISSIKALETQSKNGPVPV
As to conditions: EphA3(h); 100 μM. The gist of the method: as §1

Assay [4] has as its target T4, 266 human kinases (Homo sapiens, UniProt Q13188).
T4 sequence (Q13188 1-491): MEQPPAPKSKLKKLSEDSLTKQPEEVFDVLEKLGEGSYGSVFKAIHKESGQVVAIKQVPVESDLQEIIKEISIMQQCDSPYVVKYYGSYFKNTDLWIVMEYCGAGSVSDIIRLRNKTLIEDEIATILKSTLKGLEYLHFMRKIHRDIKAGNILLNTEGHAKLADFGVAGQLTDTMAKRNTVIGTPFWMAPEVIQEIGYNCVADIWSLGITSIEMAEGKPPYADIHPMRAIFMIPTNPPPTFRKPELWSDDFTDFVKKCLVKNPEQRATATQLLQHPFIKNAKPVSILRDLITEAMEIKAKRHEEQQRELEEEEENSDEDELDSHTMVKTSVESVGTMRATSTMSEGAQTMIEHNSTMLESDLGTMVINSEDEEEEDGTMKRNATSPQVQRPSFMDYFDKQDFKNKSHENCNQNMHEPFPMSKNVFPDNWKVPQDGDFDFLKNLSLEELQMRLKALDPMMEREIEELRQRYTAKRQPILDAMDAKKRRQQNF
As to conditions: MST2(h); 100 μM. The gist of the method:
as §1

For “HRRIKAWLKKIKALARQLGVAA (mammal) [MMI-0500]”, the “% activity” value in assay [1] is given as 95%; in assay [2] it was 43%; in assay [3], 33%; in assay [4], 2%.
